Laboratory results taken from patent US20250352659A1, “SELF-STABILIZING LINKER CONJUGATES” (priority 2023, published 2025).
Like-named read-outs stand apart in the source and are kept apart here.

Tests used:
Assay type in all cases: physicochemical
[1] = Conjugator-antibody conjugate maleimide hydrolysis (ring opening) kinetics by reduced LCMS; conditions: for half-life: buffer; for RO Completed Time (>95%): time for the maleimide ring to open in more than 95% of the conjugators
Procedure: After the conjugation step, the ADC (or conjugator-antibody conjugate) was subjected to buffer exchange into ring opening buffer (pH 6.5˜9.0, PBS, borate or tris buffer) and the solution was left at 22 or 37° C. for 1˜48 h. The maleimide ring opening process was monitored via reduced LCMS. Once the conjugated maleimide hydrolysis was completed, the resulting ADCs were buffer exchanged into basic tris pH 8.0-8.5 buffer or acidic histidine-acetate pH 5.0-6.5 buffer via dialysis.
LCMS method to monitor and determine maleimide hydrolysis. LC-MS analysis was carried out under the following measurement conditions: • LC-MS system: Vanquish Flex UHPLC and Orbitrap Exploris 240 Mass Spectrometer • Column: MAbPac™ RP, 2.1*50 mm, 4 μm, 1,500 Å, Thermo Scientific™ • Column temperature: 80° C. • Mobile phase A: 0.1% formic acid (FA) aqueous solution • Mobile phase B: Acetonitrile solution containing 0.1% formic acid (FA) • Gradient program 1: 25% B-25% B (0 min-2 min), 25% B-50% B (2 min-18 min), 50% B-90% B (18 min-18.1 min), 90% B-90% B (18.1 min-20 min), 90% B-25% B (20 min-20.1 min), 25% B-25% B (20.1 min-25 min) • Gradient program 2 • Injected sample amount: 2 μg • MS parameters: Intact and denaturing MS data were acquired in HMR mode at setting of R=15k and deconvolved using the ReSpect™ algorithm and Sliding Window integration in Thermo Scientific™ BioPharma Finder™ 4.0 software.
Results for ring opening times measured by the LCMS method described above for monitoring ring hydrolysis are presented in Table 3 as RO T1/2 (h) (i.e., the time, in hours, for 50% of the maleimide rings to open).
Conjugator-antibody conjugate maleimide hydrolysis (ring opening) kinetics are presented in FIGS. 1A-1L, Table 3 (for pH 7.0 reaction conditions, hydrolysis T1/2), and Table 5. The data in Table 5 was generated by the LCMS method described above and includes the time, in hours, for the maleimide ring to open in more than 95% of the conjugators, after antibody conjugation (“RO Completed Time (>95%) (h)”). The results for conjugator-antibody conjugate 3-1 indicate that after 24 hours, about 0% of maleimide rings were open; the results for conjugator-antibody conjugate 3-3 indicate that after 24 hours, about 28% of maleimide rings were open.

[2] = Conjugator-antibody conjugate stability in pH 7.4 and 8.0 buffer with and without GSH;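 also: conjugate hydrolysis tracked by LC-MS analysis of reduced samples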
[3] = Conjugator-antibody conjugate stability in formulation buffer (pH 5.5 20 mM histidine buffer); conditions: pH 5.5, 22 °C
Procedure: After the conjugation and hydrolysis steps described above (see “DAR8 antibody drug conjugate/conjugator-antibody conjugate preparation”), conjugator-antibody conjugates were incubated in formulation buffer (pH 5.5 20 mM histidine buffer) or glutathione (GSH) buffer (pH 7.4 or 8.0), […] Hydrolysis status was monitored via reduced LCMS. Results are presented in Table 6, Table 7, and FIGS. 2A-23B.

[4] = pH 7.0, time for 50% of the maleimide rings to open, read-out: RO T1/2 (converted)

| Compound | MS DAR ([1]; pH 7, time point 1 h) | RO (%) LC ([1]; pH 7, time point 1 h) [%] | MS DAR ([1]; pH 7, time point 3 h) | RO (%) HC ([1]; pH 7, time point 3 h) [%] | RO (%) LC ([1]; pH 7, time point 3 h) [%] | RO (%) Total ([1]; pH 7, time point 3 h) [%] | MS DAR ([1]; pH 7, time point 5 h) | RO (%) HC ([1]; pH 7, time point 5 h) [%] | RO (%) LC ([1]; pH 7, time point 5 h) [%] | RO (%) Total ([1]; pH 7, time point 5 h) [%] | MS DAR ([1]; pH 7, time point 7 h) | RO (%) HC ([1]; pH 7, time point 7 h) [%] | RO (%) LC ([1]; pH 7, time point 7 h) [%] | RO (%) Total ([1]; pH 7, time point 7 h) [%] | MS DAR ([1]; pH 7, time point 24 h) | RO (%) HC ([1]; pH 7, time point 24 h) [%] | RO (%) LC ([1]; pH 7, time point 24 h) [%] | RO (%) Total ([1]; pH 7, time point 24 h) [%] | RO Completed Time (>95%) ([1]; pH 7) [h] | MS DAR-T = 0 h [3] | also measured |
| --- | --- | --- | --- | --- | --- | --- | --- | --- | --- | --- | --- | --- | --- | --- | --- | --- | --- | --- | --- | --- | --- |
| NCC(COC(=O)NCCOCCOCCOCCOCCC(=O)O)N1C(=O)C=CC1=O (stereo not shown) [3-4] | 7.96 | 23.19 | 7.98 | 88.19 | 75.33 | 84.98 | 7.98 | 90.01 | 87.91 | 89.49 | 7.98 | 99.07 | 95.37 | 98.15 | 7.98 | 99.08 | 99.66 | 99.23 | 7 | 8.00 | half-life [1, 4]: 1.6 h; RO (%) HC ([1]; pH 7, time point 1 h): 51.56%; RO (%) Total ([1]; pH 7, time point 1 h): 44.47%; MS DAR ([2]; incubation 20 h, pH 7.4, 22 °C): 8.00; MS DAR ([2]; incubation 20 h, pH 7.4, 37 °C): 8.00; MS DAR ([2]; incubation 20 h, pH 8.0, 22 °C): 8.00; MS DAR-T = 168 h ([3]; incubation 168 h): 8.00; Maleimide ring opening ratio (%) at T = 168 h ([3]; incubation 168 h): 98.86% |
| CN(C)C(=O)CCOCC(N)CN1C(=O)C=CC1=O (stereo not shown) [3-7] | 8.52 | 28.33 | 8 | 79.61 | 60.08 | 74.73 | 8 | 88.54 | 77.85 | 85.87 | 8 | 87.98 | 86.34 | 87.57 | 8 | 90.8 | 92.99 | 91.35 | >24 | 8.00 | half-life ([1]; pH 7): 1.7 h; RO (%) HC ([1]; pH 7, time point 1 h): 40.83%; RO (%) Total ([1]; pH 7, time point 1 h): 37.71%; MS DAR ([2]; incubation 20 h, pH 7.4, 22 °C): 8.00; MS DAR ([2]; incubation 20 h, pH 7.4, 37 °C): 8.00; MS DAR ([2]; incubation 20 h, pH 8.0, 22 °C): 8.00; MS DAR-T = 168 h ([3]; incubation 168 h): 8.00; Maleimide ring opening ratio (%) at T = 168 h ([3]; incubation 168 h): 97.99% |
| CN(C)C(=O)CN(C)C(=O)OCC(CN)N1C(=O)C=CC1=O (stereo not shown) [3-8] | 7.74 | 44.94 | 7.88 | 96.11 | 80.15 | 92.12 | 7.78 | 99.49 | 92.96 | 97.85 | 7.8 | 99.47 | 94.42 | 98.21 | 7.8 | 99.55 | 95.48 | 98.53 | 5 | 7.76 | half-life [1, 4]: 1.6 h; MS DAR ([2]; incubation 20 h, pH 7.4, 22 °C): 7.92; MS DAR ([2]; incubation 20 h, pH 7.4, 37 °C): 7.92; MS DAR ([2]; incubation 20 h, pH 8.0, 22 °C): 7.88; MS DAR-T = 168 h ([3]; incubation 168 h): 7.80; Maleimide ring opening ratio (%) at T = 168 h ([3]; incubation 168 h): 95.50% |
| CC(C)N(CCC(=O)N(C)C)C(=O)OCC(CN)N1C(=O)C=CC1=O (stereo not shown) [3-9] | 7.94 | 40.06 | 7.94 | 99.84 | 79.93 | 94.86 | 7.96 | 99.07 | 89.36 | 96.64 | 7.96 | 100 | 93.56 | 98.39 | 7.96 | 100 | 99.17 | 99.79 | 5 | 8.00 | half-life [1, 4]: 0.8 h; RO (%) HC ([1]; pH 7, time point 1 h): 66.09%; RO (%) Total ([1]; pH 7, time point 1 h): 59.58%; MS DAR ([2]; incubation 20 h, pH 7.4, 22 °C): 8.00; MS DAR ([2]; incubation 20 h, pH 7.4, 37 °C): 8.00; MS DAR ([2]; incubation 20 h, pH 8.0, 22 °C): 8.00; MS DAR-T = 168 h ([3]; incubation time printed 240 h): 8.00; Maleimide ring opening ratio (%) at T = 168 h ([3]; incubation time printed 240 h): 98.51% |
| CN(C)C(=O)CCCCC(CN)N1C(=O)C=CC1=O (stereo not shown) [3-10] | 8 | 21.63 | 8 | 76.09 | 49.46 | 69.43 | 8 | 91.86 | 64.05 | 84.91 | 8 | 98.26 | 83.47 | 94.56 | 8 | 99.52 | 100 | 99.64 | 7 | 8.00 | half-life [1, 4]: 2 h; RO (%) HC ([1]; pH 7, time point 1 h): 42.51%; RO (%) Total ([1]; pH 7, time point 1 h): 37.29%; MS DAR ([2]; incubation 20 h, pH 7.4, 22 °C): 8.00; MS DAR ([2]; incubation 20 h, pH 7.4, 37 °C): 8.00; MS DAR ([2]; incubation 20 h, pH 8.0, 22 °C): 8.00; MS DAR-T = 168 h ([3]; incubation 168 h): 8.00; Maleimide ring opening ratio (%) at T = 168 h ([3]; incubation 168 h): 98.38% |
| CN(C)C(=O)CCNC(=O)NCC(CN)N1C(=O)C=CC1=O (stereo not shown) [3-12] | 8 | 27.31 | 8 | 89.82 | 74.84 | 86.08 | 8 | 95.33 | 78.30 | 91.07 | 8 | 99.07 | 88.53 | 96.44 | 8 | 99.64 | 95.87 | 98.70 | 7 | 8.02 | half-life [1, 4]: 1.6 h; RO (%) HC ([1]; pH 7, time point 1 h): 45.46%; RO (%) Total ([1]; pH 7, time point 1 h): 40.92%; MS DAR ([2]; incubation 24 h, pH 7.4, 22 °C): 8.00; MS DAR ([2]; incubation 24 h, pH 7.4, 37 °C): 8.00; MS DAR ([2]; incubation 24 h, pH 8.0, 22 °C): 8.00; MS DAR-T = 168 h ([3]; incubation 168 h): 8.02; Maleimide ring opening ratio (%) at T = 168 h ([3]; incubation 168 h): 97.83% |
